These results are taken from PMC6052341, “Phosphorylation of FtsZ and FtsA by a DNA Damage-Responsive Ser/Thr Protein Kinase Affects Their Functional Interactions in Deinococcus radiodurans” (mSphere, 2018).

B1: FtsZ of Deinococcus radiodurans, purified recombinant (natural protein, UniProt Q9RWN5 1-371, looked up)
chain: MQAARIRVIGLGGAGNNAVNRMIESGLEGVEFIAGNTDAQVLAKSHAEVRIQLGDRLTRGLGAGADPKVGEEAAVEDRDRIKEYLDDTDMLFITAGMGGGTGTGSAPVVAEIAREMGILTVAIVTRPFKFEGPKRMRVAEEGMSKLADRVDGMIVVNNEKLLTAVDKKVSFREAFLIADRVLYYGVKGISDVINVEGMINLDFADVRNLLANSGTVLMGIGAGRGDKMAEEAAMSAIHSPLLERGIEGARRILVNVTGGYDLSMTDANEIVEKIREATGFDDPDILFGITPDEAAGDEVRVTVIATGFGDNTYAAPLGGVVSSGRGGYDQGGYGSGLVRPVRGGQGGLGGGSSYDPKDYDIPAFLRNVGGQ
notes: FtsZ, cell division protein of Deinococcus radiodurans R1; also called FZ; unphosphorylated FtsZ; source: E. coli BL21(DE3) pLysS from pFTSZ, purified (nickel-chelating Sepharose, Ni-NTA agarose)
B3: FtsA of Deinococcus radiodurans, purified recombinant (natural protein, UniProt Q9RWN6 1-517, looked up)
chain: MRENSIIVGLDIGTTKITTVIGEVAPDGTIDIIGEGSVPSEGMKRGSVINLERATQAIKQSLHAAERVSGVRAWNVFVSVGGNHTKAMTSHGLAAIRRQQEISPPDVERAIENARAVPLDPSLEILHTIPQEYVVDGQEGIKNPVGMHGVRLEVDVHIVAGSAGPLLNLRRCVQEAGLQIEGFVLHSLASGLATLDHSEQNQTTVVVDMGGGTTDIGVFKRGNLAHSASIPIGGDHVTADLAQILKIPMEEAEKVKRHYGAAIPELADQELTLEITTASGATHAISAYELSRVIRPRVSEIYGLIRDEIDQALGPVELVAQSVVLTGGGAQLPGAVDLARERFRLPTRLGRPRGIHGLSDIVGDPAHACSVGMVLYGITQDGRVPSGLDDGGDPAGYTEYAGRHDQGYPQGGYPAPGYLTAPTGGTHVAPQGTPGSYPGPGYVVSGGQSQGQPYPPMPNTGSHSAGVPSMSGPVIGGQVVGVDPHAQVLVDGQPQRPPSGPKVSLMDRVRSLFRDWF

Assay [1] addresses B3. Put plainly: SPR; reverse manner: FtsZ or P-FtsZ (20 µM) immobilised on a bare gold sensor chip; FtsA or P-FtsA (4 to 20 µM) in the mobile phase. Particulars: both partners purified.
Assay [2] deals with T1, P-FtsA, phosphorylated form of FtsA of Deinococcus radiodurans, purified recombinant (Deinococcus radiodurans, UniProt Q9RWN6 1-517, phosphorylated by co-expressed RqkA (checked with anti-phospho-Ser/Thr antibodies); sites reported for FtsA: threonine 272, serine 370 and serine 386).
T1 construct: FtsA, cell division protein of Deinococcus radiodurans R1; same plasmid as m3, co-expressed with the kinase RqkA; also called phosphorylated FtsA
T1 sequence (looked up): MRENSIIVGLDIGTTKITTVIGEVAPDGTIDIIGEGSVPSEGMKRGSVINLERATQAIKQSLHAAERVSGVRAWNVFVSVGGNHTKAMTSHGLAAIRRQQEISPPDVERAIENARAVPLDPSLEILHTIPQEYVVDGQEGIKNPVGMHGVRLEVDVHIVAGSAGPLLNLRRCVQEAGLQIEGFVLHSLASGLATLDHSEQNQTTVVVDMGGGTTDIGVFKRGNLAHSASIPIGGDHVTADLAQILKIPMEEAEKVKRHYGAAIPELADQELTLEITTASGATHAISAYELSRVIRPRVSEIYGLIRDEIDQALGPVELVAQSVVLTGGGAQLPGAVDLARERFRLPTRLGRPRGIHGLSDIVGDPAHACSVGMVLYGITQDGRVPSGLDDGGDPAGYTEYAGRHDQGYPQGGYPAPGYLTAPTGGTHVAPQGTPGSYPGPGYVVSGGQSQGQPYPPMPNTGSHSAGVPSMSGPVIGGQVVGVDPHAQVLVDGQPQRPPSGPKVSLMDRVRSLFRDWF
The description is as above. The following applies: both partners purified.

In assay [3] the target is B3. Kind of assay: SPR; FtsA or P-FtsA (25 µM) immobilised on a bare gold sensor chip by EDC-NHS chemistry at 20°C, about 200 response units; running buffer 20 mM Tris pH 7.6; FtsZ or P-FtsZ (6 to 30 µM) with 1 mM GTP and 1 mM MgCl2 in the mobile phase; AutoLab Esprit. The following applies: both partners purified. (In general: Surface plasmon resonance follows binding to a sensor surface in real time, without labels.)

Assay [4] concerns the target T1, P-FtsA, phosphorylated form of FtsA of …. Described as above. The following applies: both partners purified.
The target in assay [5] is B1. Put plainly: cell-based or functional assay.

For B1, the Kd (commonly the constant that tells how readily two partners part at equilibrium) is 7.93 µM in assay [1], 5.17 µM in assay [2], 6.83 µM in assay [3] and 8.35 µM in assay [4].

B2: P-FtsZ, phosphorylated form of FtsZ of Deinococcus radiodurans, purified recombinant (natural protein, UniProt Q9RWN5 1-371, looked up)
chain: MQAARIRVIGLGGAGNNAVNRMIESGLEGVEFIAGNTDAQVLAKSHAEVRIQLGDRLTRGLGAGADPKVGEEAAVEDRDRIKEYLDDTDMLFITAGMGGGTGTGSAPVVAEIAREMGILTVAIVTRPFKFEGPKRMRVAEEGMSKLADRVDGMIVVNNEKLLTAVDKKVSFREAFLIADRVLYYGVKGISDVINVEGMINLDFADVRNLLANSGTVLMGIGAGRGDKMAEEAAMSAIHSPLLERGIEGARRILVNVTGGYDLSMTDANEIVEKIREATGFDDPDILFGITPDEAAGDEVRVTVIATGFGDNTYAAPLGGVVSSGRGGYDQGGYGSGLVRPVRGGQGGLGGGSSYDPKDYDIPAFLRNVGGQ
modifications: phosphorylated by co-expressed RqkA (checked with anti-phospho-Ser/Thr antibodies); sites mapped on FtsZ phosphorylated by RqkA in vitro: serine 235 and serine 335
notes: FtsZ, cell division protein of Deinococcus radiodurans R1; same plasmid as m1, co-expressed with the kinase RqkA; also called PFZ; phosphorylated FtsZ
As to B2, the Kd in assay [1] was determined as 65.2 µM; in assay [2], 58.3 µM; in assay [3] it was 10.3 µM; in assay [4], 15 µM.

For the molecule B3, the “stimulation of the GTPase activity of 5 µM FtsZ by 5 µM FtsA (malachite green assay; TLC of [32P]GTP to [32P]GDP)” value in assay [5] was ~1.5 fold.
